One molecule from patent CN114736300A (SUZHOU ABCARTA MEDICAL TECH CO LTD, dated 2022) can be followed below.

No end group written: not given here.

Experiment [1] concerns the target T1, HER2抗原合成多肽 (SEQ ID No.1) (not fully specified; also: coupled to KLH or OVA for immunisation).
T1 construct: It was coupled to KLH or OVA for immunisation; also called HER2的多肽
T1 peptide: PTAENPEYLGLDVPV
As to the kind of experiment: ELISA screening of hybridoma clones on the HER2 antigen (SEQ ID NO.1).

Experiment [2] addresses HER2蛋白 (表达HER2蛋白的细胞) (UniProt P04626). Kind of experiment: flow cytometry on cells expressing HER2, against the blank control without antibody.
Experiment [3] shares this target. Kind of experiment: flow cytometry on 1×10^6 cells expressing HER2, 0.5 μg antibody, Alexa Fluor 488 goat anti-rabbit secondary.

B1: 246G0D3抗HER2重组兔单克隆抗体 (antibody, V domains shown)
VH: QSVEESGGRLVTPGTPLTLTCTVSGFSLSSYAMSWVRQAPGKGLEYIGIIRSSGSTYYASWAKGRFTISKTSTTVDLKLTSPTSEDTATYFCCRGSPGSGSGYSVLWGQGTLVTVSS
VL: AAVLTQTPSPVSAAVGGTVSISCQSSKSVYNNNCLAWYQQKPGQPPKLLIYGASTLASGVPSRFKGSGSGTQFTLTISDVQCDDAATYYCAGGYTDDSDDGFGGGTEVVVK
notes: also called 246G0D3抗体; 246G0D3抗HER2单克隆抗体
Take B1: the binding result in experiment [1] is reported as “binds”. The fold MFI against the blank control in experiment [2] is 251 倍. For the same molecule, the MFI in experiment [3] is 2480.
